Legend:
[1] = target: type X collagen (Homo sapiens) (UniProt Q03692); settings: cited from earlier work
[2] = target: mouse type IV collagen (mouse); experiment: SPR; BIAcore X; collagens immobilised on CM5 chips by amide coupling, FKBP22 injected; 20 °C; HBS-P (10 mM Hepes pH 7.4, 150 mM NaCl, 0.005% Surfactant P20) with 1 mM CaCl2; flow 10 µL/min; steady-state affinity model for type IV collagen - WT FKBP22, Langmuir-binding model for type X collagen - M48K FKBP22
[3] = target: T1, human recombinant type X collagen (human, UniProt Q03692 19-680); experiment: as above; settings: both partners purified
T1 construct: type X collagen, human, recombinant; source: 293 cells, purified as described previously
T1 sequence (Q03692 19-680): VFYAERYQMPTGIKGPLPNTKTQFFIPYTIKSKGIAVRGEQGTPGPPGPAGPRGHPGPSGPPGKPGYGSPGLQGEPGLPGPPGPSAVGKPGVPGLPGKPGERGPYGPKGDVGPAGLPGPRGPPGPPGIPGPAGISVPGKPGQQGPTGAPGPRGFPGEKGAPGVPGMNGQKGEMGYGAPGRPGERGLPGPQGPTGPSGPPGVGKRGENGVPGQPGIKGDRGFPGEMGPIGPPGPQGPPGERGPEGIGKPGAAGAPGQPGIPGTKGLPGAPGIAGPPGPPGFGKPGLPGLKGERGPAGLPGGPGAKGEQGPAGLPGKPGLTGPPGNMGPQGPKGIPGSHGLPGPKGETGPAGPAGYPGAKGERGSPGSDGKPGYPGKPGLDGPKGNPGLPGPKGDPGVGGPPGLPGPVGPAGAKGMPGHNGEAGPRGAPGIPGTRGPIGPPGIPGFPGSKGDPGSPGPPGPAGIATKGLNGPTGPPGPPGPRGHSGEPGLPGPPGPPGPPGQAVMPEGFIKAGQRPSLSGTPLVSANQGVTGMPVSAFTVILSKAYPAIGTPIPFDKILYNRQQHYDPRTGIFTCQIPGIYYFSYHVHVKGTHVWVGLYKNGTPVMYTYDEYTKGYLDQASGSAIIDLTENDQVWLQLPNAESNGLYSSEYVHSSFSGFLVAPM

Sequence of type X collagen (Homo sapiens) (Q03692 19-680): as above

For FKBP22 (from UniProt Q9NWM8), the Kd [1] is given as 43 µM.

B1: recombinant human wild type FKBP22 (FK506 Binding Protein 22 kDa) (enzyme)
chain: LIPEPEVKIEVLQKPFICHRKTKGGDLMLVHYEGYLEKDGSLFHSTHKHNNGQPIWFTLGILEALKGWDQGLKGMCVGEKRKLIIPPALGYGKEGKGKIPPESTLIFNIDLLEIRNGPRSHESFQEMDLNDDWKLSKDEVKAYLKKEFEKHGAVVNESHHDALVEDIFDKEDEDKDGFISAREFTYKHDEL
In the case of B1, the Kd [2] is reported as 310 µM.

B2: recombinant human M48K FKBP22 (Met48Lys) (enzyme)
chain: LIPEPEVKIEVLQKPFICHRKTKGGDLKLVHYEGYLEKDGSLFHSTHKHNNGQPIWFTLGILEALKGWDQGLKGMCVGEKRKLIIPPALGYGKEGKGKIPPESTLIFNIDLLEIRNGPRSHESFQEMDLNDDWKLSKDEVKAYLKKEFEKHGAVVNESHHDALVEDIFDKEDEDKDGFISAREFTYKHDEL
notes: The mutation was found in a patient with kEDS; PDB 4MSP is the WT structure (parent); also called mutant FKBP22; source: E. coli BL21 (DE3), solubilised with 2 M urea, purified (Co2+-chelating column, enterokinase cleavage, Phenyl column)
For B2, the Kd [3] was 5.3 ± 4 µM.

Source: publication PMC6965642, “The novel missense mutation Met48Lys in FKBP22 changes its structure and functions” (Scientific Reports, 2020)
